Laboratory results reported in US20240101702A1 (PRECISION BIOLOGICS, published 2024).

Biological target: T1, CEACAM8 (human, UniProt P31997 35-320, limits assumed)
T1 sequence (looked up): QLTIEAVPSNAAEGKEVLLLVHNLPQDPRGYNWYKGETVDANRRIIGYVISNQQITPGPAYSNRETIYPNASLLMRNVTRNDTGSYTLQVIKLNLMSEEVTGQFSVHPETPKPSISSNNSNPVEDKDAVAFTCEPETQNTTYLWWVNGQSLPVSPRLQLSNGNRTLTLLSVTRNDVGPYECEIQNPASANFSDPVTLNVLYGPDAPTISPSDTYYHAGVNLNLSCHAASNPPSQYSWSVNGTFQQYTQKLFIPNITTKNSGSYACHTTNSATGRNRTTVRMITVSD
Experiment: in vitro assays using human tumor cell lines (method not detailed)

B1: NEO-201 humanized IgG1 monoclonal antibody (antibody, V domains shown)
VH: QVQLVQSGAEVKKPGASVKVSCKASGYTFTDYAMHWVRQAPGQRLEWMGLISTYSGDTKYNQNFQGRVTMTVDKSASTAYMELSSLRSEDTAVYYCARGDYSGSRYWFAYWGQGTLVTVSS
VL: DIQMTQSPSSLSASVGDRVTITCQASENIYGALNWYQRKPGKSPKLLIYGASNLATGMPSRFSGSGSGTDYTFTISSLQPEDIATYYCQQVLSSPYTFGGGTKLEIKR
notes: also called h16C3; H16C3-Abb*
B1: no binding.
